Source: PMC4520616, “Biochemical Characterization of the Split Class II Ribonucleotide Reductase from Pseudomonas aeruginosa” (PLoS ONE, 2015)

B1: NrdJb subunit of the split class II ribonucleotide reductase from Pseudomonas aeruginosa (enzyme, UniProt Q9HT77 1-229, looked up)
chain: MSAVKITQKIKGFKVVNEAEEQALAAAAEAASVVQMDETLERPDTLIGATYKIKSPLFEHALYVTINDMVLNAGTAHEQRRPFEIFINSKNMDHFQWIVALTRIMSAVFRKGGDCTFLVEELKAVFDPRGGYLKKGGIYMPSIVAEIGGVLERHLTAIGLLRGPELDEEQRLFLAEKRAAYEAAQGTSKVEPGEGFPAGAQLCGKCNSMAVVQMDGCATCLNCGHSKCG
modifications: biotin linker (0.05 biotin linker/NrdJb monomer) where NrdJb was immobilised on the streptavidin chip for SPR
notes: NrdJb, small subunit of the split class II ribonucleotide reductase (NrdJ) of Pseudomonas aeruginosa; 229 residues in PA; the gene encoding NrdJb was custom synthesised with codon optimisation for E. coli and cloned into pET21; No cleavage of the tag is described; Probably the whole 229-residue protein; also called PA NrdJb; His-tagged NrdJb; source: E. coli BL21(DE3), pET21, codon-optimised …
B2: NrdJa-NrdJb (split class II ribonucleotide reductase, PA NrdJ) (Pseudomonas aeruginosa PAO1) (protein)
chain: MLRTVAGFGRPNNHREVNQRMAKTDARSPRTERGTIALQDASQDIWDKKYRLKSKDGTPVDASVDGTWQRVARALADVEDKASREHWYGRFLWALRNGAIPAGRIISNAGALGHKPATSTINCTVSGTIQDSMDNILEKVHEAGLTLKAGCGIGYEFSTLRPRGAYVSGAGAYTSGPLSFMDIYDKMCFTVSSAGGRRGAQMGTFDVSHPDVREFIRAKREDGRLRQFNLSLLITDQFMQAVEQDADWPLVFPVHVKERDEIDLDDPNAVVWREWPIQDDYVQRADGLVACKVYGQVRARHLWDMIMVSTYDYAEPGFILIDRVNELNNNWWCEAIRATNPCGEQPLPPYGSCLLGSVNLTCFVEQPFGDEARFDWDRFREVVRVFTRMLDNVVEINGLPLEQQRQEILGKRRHGMGFLGLGSTLTLLKLRYGSPEACVFTEEVAREMALVGWEVALELAREKGPAPILAQDYEVTAEMLRKRPEMAADGYKAGDRIRGSVLHAKYSRYMQRVAEHAPELIEALAETGARFTHHSSIAPTGTISLSLANNASNGIEPSFAHHYSRNLIREGRKTKEKVEVYSYELLAYRTLVNAQALPDSDDPARRLPDYFITADSVTPAQHMDIQAAAQKWVDSSISKTANVPTDYPFEDFKDIYRYAWHQGLKGCTTFRFNPEAFQGVLVKESDLEKTRYRFELEDGSVVEFKGNEQVEYDGEIHTAANLFDALKEGYYGKY
notes: E. coli BL21(DE3); NrdJa untagged in pET22, 734 residues; NrdJb 229 residues, codon-optimised, 6xHis in pET21 (C-terminal in results, N-terminal in methods); proposed (NrdJa-NrdJb)2; with Class II (cobalamin-dependent) ribonucleotide-diphosphate reductase subunit, NrdJb
B3: NrdJa subunit of the split class II ribonucleotide reductase from Pseudomonas aeruginosa (enzyme, UniProt Q9HT76 1-734, looked up)
chain: B2 chain
modifications: biotin linker (0.15 biotin linker/NrdJa monomer) only where NrdJa was immobilised on the streptavidin chip for SPR
notes: NrdJa, large subunit of the split class II ribonucleotide reductase (NrdJ) of Pseudomonas aeruginosa; 734 residues in PA; the nrdJa open reading frame was cloned into pET22; Monomer or dimer according to the allosteric effector (GEMMA); also called PA NrdJa

What was measured:
[1] = biological target: B3; assay: cell-based or functional assay
[2] = biological target: B3; assay: SPR; biotinylated NrdJb immobilised on streptavidin chip, 0-2 uM NrdJa injected; 30 mM Tris-HCl pH 7.0, 10 mM MgCl2, 0.025% P20, 2 mM DTT; with 0.5 mM CTP; steady state fit; apparent Kd; settings: both partners purified
[3] = biological target: B3; assay: SPR; biotinylated NrdJb immobilised on streptavidin chip, 0-2 uM NrdJa injected; 30 mM Tris-HCl pH 7.0, 10 mM MgCl2, 0.025% P20, 2 mM DTT; with 0.5 mM dATP; steady state fit; apparent Kd; settings: both partners purified
[4] = biological target: B3; assay: SPR; biotinylated NrdJb immobilised on streptavidin chip, 0-2 uM NrdJa injected; 30 mM Tris-HCl pH 7.0, 10 mM MgCl2, 0.025% P20, 2 mM DTT; with 40 uM AdoCbl; steady state fit; apparent Kd; settings: both partners purified
[5] = biological target: B3; assay: SPR; biotinylated NrdJb immobilised on streptavidin chip, 0-2 uM NrdJa injected at 30 ul/min; 30 mM Tris-HCl pH 7.0, 10 mM MgCl2, 0.025% P20, 2 mM DTT; no additive; steady state fit; apparent Kd; settings: both partners purified
[6] = biological target: B3; assay: SPR; biotinylated NrdJb immobilised on streptavidin chip, 0-2 uM NrdJa injected; 30 mM Tris-HCl pH 7.0, 10 mM MgCl2, 0.025% P20, 2 mM DTT; with 0.5 mM CTP + 40 uM AdoCbl; steady state fit; apparent Kd; settings: both partners purified
[7] = biological target: B3; assay: SPR; biotinylated NrdJb immobilised on streptavidin chip, 0-2 uM NrdJa injected; 30 mM Tris-HCl pH 7.0, 10 mM MgCl2, 0.025% P20, 2 mM DTT; with 0.5 mM dATP + 0.5 mM CTP + 40 uM AdoCbl; steady state fit; apparent Kd; settings: both partners purified
[8] = substrate: Nc1ccn([C@@H]2O[C@H](COP(=O)(O)OP(=O)(O)OP(=O)(O)O)[C@@H](O)[C@H]2O)c(=O)n1; assay: 3H-CTP reduction assay, Michaelis-Menten fit; type: biochemical, Pseudomonas aeruginosa; settings: 1 mM ATP, 100 μM AdoCbl, 30 mM DTT, 10 mM MgCl2, pH 7.5, labelled compound
[9] = biological target: the molecule itself; assay: gas phase electrophoretic macromolecule analysis (GEMMA); 0.02 mg/ml NrdJa in 40 mM ammonium acetate pH 7.8, 0.005% Tween-20, 2 mM DTT; with 50 uM dTTP and 1:1 Mg2+

## B1
[1]
  stoichiometry from the enzyme activity titration (activity leveled off at approximately equimolar concentration of NrdJa and NrdJb): 1
[2]
  Kd: 360 ± 90 nM
[3]
  Kd: 91 ± 17 nM
[4]
  Kd: 680 ± 100 nM
[5]
  Kd: 690 ± 60 nM
[6]
  Kd: 300 ± 190 nM
[7]
  Kd: 54 ± 12 nM

## B2
[8]
  Km: 220 ± 60 µM

## B3
[9]
  stoichiometry N: 2
